Numbering of substitutions follows the chain as printed.
Experiments:
FcRn (Acro Biosystems) = FcRn (Acro Biosystems) (human, UniProt P55899 24-297; P61769 21-119); assay: BLI (Fortebio), FcRn loaded on HIS1K probe, pH 7.0
Protocol: (§1) The variant proteins were tested for affinity to FcRn at pH 7.0. The affinity of the antibody fragment for the receptor was determined using Fortebio. FcRn (Acro Biosystems) was loaded at 0.8 nm with an HIS1K probe, bound to the variant protein at various concentrations for 60 seconds and dissociated for 300 seconds.

[1] = target: T1, FcγRIIa-131H (Acro Biosystems) (UniProt P12318 36-218, limits assumed); assay: BLI (Fortebio), FcγR loaded on HIS1K probe, pH 7.0
T1 construct: The 131H/R allotypes are those of the human receptor
T1 sequence (looked up): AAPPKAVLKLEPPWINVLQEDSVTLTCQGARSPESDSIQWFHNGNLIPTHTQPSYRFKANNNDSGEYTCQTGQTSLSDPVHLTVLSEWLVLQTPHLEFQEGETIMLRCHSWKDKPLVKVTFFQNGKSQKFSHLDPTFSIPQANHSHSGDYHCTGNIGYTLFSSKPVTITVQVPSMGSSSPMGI
Protocol: as §1, with “to FcγRI, FcγRIIa-131H, FcγRIIa-131R, FcγRIIb, FcγRIIIa-158F, FcγRIIIa-158V” for “to FcRn”, “Fortebio. Different FcγR” for “Fortebio. FcRn”, “at 0.5” for “at 0.8”, “for 60” for “for 300”

[2] = target: T2, FcγRIIb (Acro Biosystems) (UniProt P31994 46-217, limits assumed); assay: BLI (Fortebio), FcγR loaded on HIS1K probe, pH 7.0
T2 sequence (looked up): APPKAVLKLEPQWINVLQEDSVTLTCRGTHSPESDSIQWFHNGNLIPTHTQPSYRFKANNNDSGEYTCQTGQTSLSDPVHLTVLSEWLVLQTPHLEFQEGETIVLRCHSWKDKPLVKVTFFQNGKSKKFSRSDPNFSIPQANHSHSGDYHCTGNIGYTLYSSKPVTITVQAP
Protocol: as §1, with “to FcγRI, FcγRIIa-131H, FcγRIIa-131R, FcγRIIb, FcγRIIIa-158F, FcγRIIIa-158V” for “to FcRn”, “Fortebio. Different FcγR” for “Fortebio. FcRn”, “at 0.5” for “at 0.8”, “for 60” for “for 300”

FcγRI (Acro Biosystems) [3] = target: T3, FcγRI (Acro Biosystems) (UniProt P12314 16-288, limits assumed); assay: BLI (Fortebio), FcγR loaded on HIS1K probe, pH 7.0
T3 construct: also called CD64
T3 sequence (P12314 16-288 limits assumed): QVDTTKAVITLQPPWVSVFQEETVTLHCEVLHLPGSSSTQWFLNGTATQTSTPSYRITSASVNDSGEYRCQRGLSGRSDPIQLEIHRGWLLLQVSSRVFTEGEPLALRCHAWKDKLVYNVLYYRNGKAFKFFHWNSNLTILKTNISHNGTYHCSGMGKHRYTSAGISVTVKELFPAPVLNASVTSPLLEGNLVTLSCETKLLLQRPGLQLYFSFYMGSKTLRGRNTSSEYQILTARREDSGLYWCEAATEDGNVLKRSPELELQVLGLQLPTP
Protocol: as §1, with “to FcγRI, FcγRIIa-131H, FcγRIIa-131R, FcγRIIb, FcγRIIIa-158F, FcγRIIIa-158V” for “to FcRn”, “Fortebio. Different FcγR” for “Fortebio. FcRn”, “at 0.5” for “at 0.8”, “for 60” for “for 300”

[4] = target: T4, FcγRIIIa-158F (Acro Biosystems) (UniProt P08637 17-208); assay: BLI (Fortebio), FcγR loaded on HIS1K probe, pH 7.0
T4 construct: The 158V/F allotypes are those of the human receptor
T4 sequence (P08637 17-208 limits assumed): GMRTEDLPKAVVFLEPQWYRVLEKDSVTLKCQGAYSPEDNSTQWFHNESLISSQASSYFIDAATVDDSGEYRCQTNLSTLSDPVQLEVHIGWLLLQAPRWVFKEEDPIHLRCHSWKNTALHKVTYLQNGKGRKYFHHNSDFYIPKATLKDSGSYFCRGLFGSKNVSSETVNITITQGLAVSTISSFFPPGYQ
Protocol: as §1, with “to FcγRI, FcγRIIa-131H, FcγRIIa-131R, FcγRIIb, FcγRIIIa-158F, FcγRIIIa-158V” for “to FcRn”, “Fortebio. Different FcγR” for “Fortebio. FcRn”, “at 0.5” for “at 0.8”, “for 60” for “for 300”

[5] = target: T5, FcγRIIa-131R (Acro Biosystems) (UniProt P12318 36-218, limits assumed); assay: BLI (Fortebio), FcγR loaded on HIS1K probe, pH 7.0
T5 construct: The 131H/R allotypes are those of the human receptor
T5 sequence (looked up): T1 sequence (looked up) with H132R
Protocol: as §1, with “to FcγRI, FcγRIIa-131H, FcγRIIa-131R, FcγRIIb, FcγRIIIa-158F, FcγRIIIa-158V” for “to FcRn”, “Fortebio. Different FcγR” for “Fortebio. FcRn”, “at 0.5” for “at 0.8”, “for 60” for “for 300”

[6] = target: T6, FcγRIIIa-158V (Acro Biosystems) (UniProt P08637 17-208); assay: BLI (Fortebio), FcγR loaded on HIS1K probe, pH 7.0
T6 construct: The 158V/F allotypes are those of the human receptor
T6 sequence (P08637 17-208 F176V limits assumed): as the sequence (P08637 17-208 limits assumed) above, with F160V counted along it
Protocol: as §1, with “to FcγRI, FcγRIIa-131H, FcγRIIa-131R, FcγRIIb, FcγRIIIa-158F, FcγRIIIa-158V” for “to FcRn”, “Fortebio. Different FcγR” for “Fortebio. FcRn”, “at 0.5” for “at 0.8”, “for 60” for “for 300”

FcγRI (Acro Biosystems) [7] = target: T3, FcγRI (Acro Biosystems); assay: BLI (Fortebio), ratio of KD against m1
Protocol: as §1, with “to FcγRI, FcγRIIa-131H, FcγRIIa-131R, FcγRIIb, FcγRIIIa-158F, FcγRIIIa-158V” for “to FcRn”, “Fortebio. Different FcγR” for “Fortebio. FcRn”, “at 0.5” for “at 0.8”, “for 60” for “for 300”

[8] = target: T1, FcγRIIa-131H (Acro Biosystems); assay: BLI (Fortebio), ratio of KD against m1
Protocol: as §1, with “to FcγRI, FcγRIIa-131H, FcγRIIa-131R, FcγRIIb, FcγRIIIa-158F, FcγRIIIa-158V” for “to FcRn”, “Fortebio. Different FcγR” for “Fortebio. FcRn”, “at 0.5” for “at 0.8”, “for 60” for “for 300”

[9] = target: T2, FcγRIIb (Acro Biosystems); assay: BLI (Fortebio), ratio of KD against m1
Protocol: as §1, with “to FcγRI, FcγRIIa-131H, FcγRIIa-131R, FcγRIIb, FcγRIIIa-158F, FcγRIIIa-158V” for “to FcRn”, “Fortebio. Different FcγR” for “Fortebio. FcRn”, “at 0.5” for “at 0.8”, “for 60” for “for 300”

[10] = target: T4, FcγRIIIa-158F (Acro Biosystems); assay: BLI (Fortebio), ratio of KD against m1
Protocol: as §1, with “to FcγRI, FcγRIIa-131H, FcγRIIa-131R, FcγRIIb, FcγRIIIa-158F, FcγRIIIa-158V” for “to FcRn”, “Fortebio. Different FcγR” for “Fortebio. FcRn”, “at 0.5” for “at 0.8”, “for 60” for “for 300”

[11] = target: T5, FcγRIIa-131R (Acro Biosystems); assay: BLI (Fortebio), ratio of KD against m1
Protocol: as §1, with “to FcγRI, FcγRIIa-131H, FcγRIIa-131R, FcγRIIb, FcγRIIIa-158F, FcγRIIIa-158V” for “to FcRn”, “Fortebio. Different FcγR” for “Fortebio. FcRn”, “at 0.5” for “at 0.8”, “for 60” for “for 300”

[12] = target: T6, FcγRIIIa-158V (Acro Biosystems); assay: BLI (Fortebio), ratio of KD against m1
Protocol: as §1, with “to FcγRI, FcγRIIa-131H, FcγRIIa-131R, FcγRIIb, FcγRIIIa-158F, FcγRIIIa-158V” for “to FcRn”, “Fortebio. Different FcγR” for “Fortebio. FcRn”, “at 0.5” for “at 0.8”, “for 60” for “for 300”

Sequence of FcRn (Acro Biosystems) (P55899 24-297 limits assumed, chain 1 of 2): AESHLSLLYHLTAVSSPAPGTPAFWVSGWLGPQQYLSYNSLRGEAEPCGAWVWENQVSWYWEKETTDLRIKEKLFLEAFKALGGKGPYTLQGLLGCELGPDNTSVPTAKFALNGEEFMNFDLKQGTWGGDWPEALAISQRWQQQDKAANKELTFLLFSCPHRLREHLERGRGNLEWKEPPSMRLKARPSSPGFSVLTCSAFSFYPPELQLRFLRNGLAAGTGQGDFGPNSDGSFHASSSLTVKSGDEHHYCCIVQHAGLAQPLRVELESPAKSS
Sequence of FcRn (Acro Biosystems) (P61769 21-119 limits assumed, chain 2 of 2): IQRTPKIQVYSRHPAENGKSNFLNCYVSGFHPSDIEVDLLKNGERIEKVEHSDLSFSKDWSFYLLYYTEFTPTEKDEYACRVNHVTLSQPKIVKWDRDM

B1: Fc variant m5 (other)
chain: DKTHTCPPCPAPELLGGPSVFLFPPKPKDTLYITREPEVTCVVVDVSHEDPEVKFNWYVDGVEVHNAKTKPREQYNSTYRVVSVLTVLHQDWLNGKEYKCKVSNKALPAPIEKTISKAKGQPREPQVYTLPPSRDELTKNQVSLTCLVKGFYPSDIAVEWESNGQPENNYKTTPPVLDSDGSFFLYSKLTVDKSRWQQGNVFSCSVMHEALKFHYTQKSLSLSP
modifications: N-glycan with 2,6-sialic acid (variant co-expressed with human GT and ST in ExpiCHO-S cells)
notes: Fc fragment variant of IgG1
kon (FcRn (Acro Biosystems)): 347000 M⁻¹ s⁻¹

B2: Fc variant m1 (other)
chain: DKTHTCPPCPAPELLGGPSVFLFPPKPKDTLYITREPEVTCVVVDVSHEDPEVKFNWYVDGVEVHNAKTKPREEQYNSTYRVVSVLTVLHQDWLNGKEYKCKVSNKALPAPIEKTISKAKGQPREPQVYTLPPSRDELTKNQVSLTCLVKGFYPSDIAVEWESNGQPENNYKTTPPVLDSDGSFFLYSKLTVDKSRWQQGNVFSCSVMHEALKFHYTQKSLSLSP
modifications: N-glycan with 2,6-sialic acid (variant co-expressed with human GT and ST in ExpiCHO-S cells)
notes: also called control m1
Kd [1]: 2560 nM
Kd [2]: 10700 nM
Kd (FcγRI (Acro Biosystems) [3]): 316 nM
Kd [4]: 7210 nM
Kd [5]: 2050 nM
Kd [6]: 1710 nM
kon (FcRn (Acro Biosystems)): 214000 M⁻¹ s⁻¹

B3: Fc variant m9 (other)
chain: B2 chain with Y76N, N77A
notes: Fc fragment variant of IgG1, co-expressed with human GT and ST
kon (FcRn (Acro Biosystems)): 208000 M⁻¹ s⁻¹

B4: Fc variant m4 (other)
chain: B2 chain with F23A
modifications: N-glycan with 2,6-sialic acid (variant co-expressed with human GT and ST in ExpiCHO-S cells)
notes: Fc fragment variant of IgG1
kon (FcRn (Acro Biosystems)): 298000 M⁻¹ s⁻¹

B5: Fc variant m11 (other)
chain: B2 chain with Y80A
modifications: N-glycan with 2,6-sialic acid (variant co-expressed with human GT and ST in ExpiCHO-S cells)
notes: Fc fragment variant of IgG1
kon (FcRn (Acro Biosystems)): 38300 M⁻¹ s⁻¹

B6: Fc variant m3 (other)
chain: B2 chain with F21A
modifications: N-glycan with 2,6-sialic acid (variant co-expressed with human GT and ST in ExpiCHO-S cells)
notes: Fc fragment variant of IgG1
kon (FcRn (Acro Biosystems)): 272000 M⁻¹ s⁻¹

B7: Fc variant m10 (other)
chain: B2 chain with S78N, T79A, Y80S
notes: as for B3
kon (FcRn (Acro Biosystems)): 221000 M⁻¹ s⁻¹

B8: Fc variant m7 (other)
chain: B2 chain with V44E
modifications: N-glycan with 2,6-sialic acid (variant co-expressed with human GT and ST in ExpiCHO-S cells)
notes: Fc fragment variant of IgG1
Fold change of m7 relative to m1 (FcγRI (Acro Biosystems) [7]): 4.95 fold
Kd (FcγRI (Acro Biosystems) [3]): 63.8 nM
kon (FcRn (Acro Biosystems)): 221000 M⁻¹ s⁻¹

B9: Fc variant m8 (other)
chain: B2 chain with Y76A
notes: as for B3
kon (FcRn (Acro Biosystems)): 115000 M⁻¹ s⁻¹

B10: Fc variant m6 (other)
chain: B2 chain with V44A
modifications: N-glycan with 2,6-sialic acid (variant co-expressed with human GT and ST in ExpiCHO-S cells)
notes: Fc fragment variant of IgG1
Fold change of m6 relative to m1 [8]: 1 fold
Fold change of m6 relative to m1 [9]: 1.57 fold
Fold change of m6 relative to m1 (FcγRI (Acro Biosystems) [7]): 0.99 fold
Fold change of m6 relative to m1 [10]: 0.75 fold
Fold change of m6 relative to m1 [11]: 1.46 fold
Fold change of m6 relative to m1 [12]: 0.97 fold
Kd [1]: 2560 nM
Kd [2]: 6820 nM
Kd (FcγRI (Acro Biosystems) [3]): 319 nM
Kd [4]: 9670 nM
Kd [5]: 1400 nM
Kd [6]: 1760 nM
kon (FcRn (Acro Biosystems)): 212000 M⁻¹ s⁻¹

— patent US20250043026A1 (SHANGHAI BAO PHARMACEUTICALS, published 2025)
